According to PMC6219380:

Biological target: SgcC5 (unlabelled) (Streptomyces globisporus)
Assay: SEC

SgcC5 (unlabelled) (enzyme)
stoichiometry N: 2
